Data published in patent publication US20240270813A1 (UNIVERSITY OF PITTSBURGH OF THE COMMONWEALTH SYSTEM OF …, published 2024).

T1: minor histocompatibility antigen HA-1, immunogenic H variant peptide on HLA-A*02:01 (human)
T1 peptide: VLHDDLLEA


Tests used:
[1] = molecular target: HA-1 “H” peptide (…) presented by HLA-A*02:01 on antigen presenting cells (human); experiment: cell-based or functional assay
[2] = molecular target: T1, minor histocompatibility antigen HA-1, …; experiment: multimer staining

EC50 values for CD69 Expression [1]	binding result [2]	Binder
125 ng/mL	–	TCR V (TCR, V domains shown) V domain 1: AQTVTQSQPEMSVQEAETVTLSCTYDTSENNYYLFWYKQPPSRQMILVIRQEAYKQQNATENRFSVNFQKAAKSFSLKISDSQLGDTAMYFCALYSGAGSYQLTFGKGTKLSVIP V domain 2: DTGVSQDPRHKITKRGQNVTFRCDPISEHNRLYWYRQTLGQGPEFLTYFQNEAQLEKSRLLSDRFSAERPKGSFSTLEIQRTEQGDSAMYLCASSLAAGMNTEAFFGQGTRLTVVE
–	recognises	TCR V (TCR, V domains shown) Valpha: AQTVTQSQPEMSVQEAETVTLSCTYDTSENNYYLFWYKQPPSRQMILVIRQEAYKQQNATENRFSVNFQKAAKSFSLKISDSQLGDTAMYFCALYSGAGSYQLTFGKGTKLSVIP Vbeta: DTGVSQDPRHKITKRGQNVTFRCDPISEHNRLYWYRQTLGQGPEFLTYFQNEAQLEKSRLLSDRFSAERPKGSFSTLEIQRTEQGDSAMYLCASSLAAGMNTEAFFGQGTRLTVV
–	recognises	TCR X (TCR, V domains shown) Valpha: GENVEQHPSTLSVQEGDSAVIKCTYSDSASNYFPWYKQELGKRPQLIIDIRSNVGEKKDQRIAVTLNKTAKHFSLHITETQPEDSAVYFCVVLGGAGNMLTFGGGTRLMVKP Vbeta: DTGVSQDPRHKITKRGQNVTFRCDPISEHNRLYWYRQTLGQGPEFLTYFQNEAQLEKSRLLSDRFSAERPKGSFSTLEIQRTEQGDSAMYLCASSLTVSDGYTFGSGTRLTVV
–	recognises	TCR AA (TCR, V domains shown) Valpha: QQQVKQSPQSLIVQKGGISIINCAYENTAFDYFPWYQQFPGKGPALLIAIRPDVSEKKEGRFTISFNKSAKQFSLHIMDSQPGDSATYFCAASSPGTYKYIFGTGTRLKVLA Vbeta: DTGVSQDPRHKITKRGQNVTFRCDPISEHNRLYWYRQTLGQGPEFLTYFQNEAQLEKSRLLSDRFSAERPKGSFSTLEIQRTEQGDSAMYLCASSLLKNTEAFFGQGTRLTVV
–	recognises	TCR AC (TCR, V domains shown) Valpha: SQQGEEDPQALSIQEGENATMNCSYKTSINNLQWYRQNSGRGLVHLILIRSNEREKHSGRLRVTLDTSKKSSSLLITASRAADTASYFCAKNDMRFGAGTRLTVKP Vbeta: DTGVSQNPRHKITKRGQNVTFRCDPISEHNRLYWYRQTLGQGPEFLTYFQNEAQLEKSRLLSDRFSAERPKGSFSTLEIQRTEQGDSAMYLCASSLLVGETQYFGPGTRLLVL
–	recognises	TCR Z (TCR, V domains shown) Valpha: QQVMQIPQYQHVQEGEDFTTYCNSSTTLSNIQWYKQRPGGHPVFLIQLVKSGEVKKQKRLTFQFGEAKKNSSLHITATQTTDVGTYFCAGPKGNTPLVFGKGTRLSVIA Vbeta: DTGVSQDPRHKITKRGQNVTFRCDPISEHNRLYWYRQTLGQGPEFLTYFQNEAQLEKSRLLSDRFSAERPKGSFSTLEIQRTEQGDSAMYLCASSLTVSYEQYFGPGTRLTVT
–	recognises	TCR AD (TCR, V domains shown) Valpha: SQQGEEDPQALSIQEGENATMNCSYKTSINNLQWYRQNSGRGLVHLILIRSNEREKHSGRLRVTLDTSKKSSSLLITASRAADTASYFCATVPTDYMYSGGGADGLTFGKGTHLIIQP Vbeta: DTGVSQNPRHKITKRGQNVTFRCDPISEHNRLYWYRQTLGQGPEFLTYFQNEAQLEKSRLLSDRFSAERPKGSFSTLEIQRTEQGDSAMYLCASSLVRLDGYTFGSGTRLTVV
–	recognises	TCR AJ (TCR, V domains shown) Valpha: EDQVTQSPEALRLQEGESSSLNCSYTVSGLRGLFWYRQDPGKGPEFLFTLYSAGEEKEKERLKATLTKKESFLHITAPKPEDSATYLCAVHSNAGGTSYGKLTFGQGTILTVHP Vbeta: DAGVTQSPTHLIKTRGQHVTLRCSPISGHKSVSWYQQVLGQGPQFIFQYYEKEERGRGNFPDRFSARQFPNYSSELNVNALLLGDSALYLCASSADRGSPLHFGNGTRLTVT
–	recognises	TCR F (TCR, V domains shown) Valpha: GENVEQHPSTLSVQEGDSAVIKCTYSDSASNYFPWYKQELGKRPQLIIDIRSNVGEKKDQRIAVTLNKTAKHFSLHITETQPEDSAVYFCAAHLTGGGNKLTFGTGTQLKVEL Vbeta: DTGVSQDPRHKITKRGQNVTFRCDPISEHNRLYWYRQTLGQGPEFLTYFQNEAQLEKSRLLSDRFSAERPKGSFSTLEIQRTEQGDSAMYLCASSSRAGGETQYFGPGTRLLVL
7.18 ng/mL	–	TCR W (TCR, V domains shown) V domain 1: AQSVAQPEDQVNVAEGNPLTVKCTYSVSGNPYLFWYVQYPNRGLQFLLKYITGDNLVKGSYGFEAEFNKSQTSFHLKKPSALVSDSALYFCAVRDPTSGTYKYIFGTGTRLKVLA V domain 2: DTGVSQDPRHKITKRGQNVTFRCDPISEHNRLYWYRQTLGQGPEFLTYFQNEAQLEKSRLLSDRFSAERPKGSFSTLEIQRTEQGDSAMYLCASSLVQGNEQFFGPGTRLTVLE
23.6 ng/mL	–	TCR X (TCR, V domains shown) V domain 1: GENVEQHPSTLSVQEGDSAVIKCTYSDSASNYFPWYKQELGKRPQLIIDIRSNVGEKKDQRIAVTLNKTAKHFSLHITETQPEDSAVYFCVVLGGAGNMLTFGGGTRLMVKP V domain 2: DTGVSQDPRHKITKRGQNVTFRCDPISEHNRLYWYRQTLGQGPEFLTYFQNEAQLEKSRLLSDRFSAERPKGSFSTLEIQRTEQGDSAMYLCASSLTVSDGYTFGSGTRLTVVE
0.9 ng/mL	–	TCR AC (TCR, V domains shown) V domain 1: SQQGEEDPQALSIQEGENATMNCSYKTSINNLQWYRQNSGRGLVHLILIRSNEREKHSGRLRVTLDTSKKSSSLLITASRAADTASYFCAKNDMRFGAGTRLTVKP V domain 2: DTGVSQNPRHKITKRGQNVTFRCDPISEHNRLYWYRQTLGQGPEFLTYFQNEAQLEKSRLLSDRFSAERPKGSFSTLEIQRTEQGDSAMYLCASSLLVGETQYFGPGTRLLVLE
–	recognises	TCR D (TCR, V domains shown) Valpha: AQSVAQPEDQVNVAEGNPLTVKCTYSVSGNPYLFWYVQYPNRGLQFLLKYITGDNLVKGSYGFEAEFNKSQTSFHLKKPSALVSDSALYFCAVRAPTSGTYKYIFGTGTRLKVLA Vbeta: DTGVSQDPRHKITKRGQNVTFRCDPISEHNRLYWYRQTLGQGPEFLTYFQNEAQLEKSRLLSDRFSAERPKGSFSTLEIQRTEQGDSAMYLCASSLVSGNEQFFGPGTRLTVL
1.1 ng/mL	–	TCR AA (TCR, V domains shown) V domain 1: QQQVKQSPQSLIVQKGGISIINCAYENTAFDYFPWYQQFPGKGPALLIAIRPDVSEKKEGRFTISFNKSAKQFSLHIMDSQPGDSATYFCAASSPGTYKYIFGTGTRLKVLA V domain 2: DTGVSQDPRHKITKRGQNVTFRCDPISEHNRLYWYRQTLGQGPEFLTYFQNEAQLEKSRLLSDRFSAERPKGSFSTLEIQRTEQGDSAMYLCASSLLKNTEAFFGQGTRLTVVE
10.8 ng/mL	–	TCR Y (TCR, V domains shown) V domain 1: SQQGEEDPQALSIQEGENATMNCSYKTSINNLQWYRQNSGRGLVHLILIRSNEREKHSGRLRVTLDTSKKSSSLLITASRAADTASYFCATAYSGGGADGLTFGKGTHLIIQP V domain 2: DTGVSQNPRHKITKRGQNVTFRCDPISEHNRLYWYRQTLGQGPEFLTYFQNEAQLEKSRLLSDRFSAERPKGSFSTLEIQRTEQGDSAMYLCASSLIRAEKLFFGSGTQLSVLE
–	recognises	TCR E (TCR, V domains shown) Valpha: AQSVAQPEDQVNVAEGNPLTVKCTYSVSGNPYLFWYVQYPNRGLQFLLKYITGDNLVKGSYGFEAEFNKSQTSFHLKKPSALVSDSALYFCAVRGPTSGTYKYIFGTGTRLKVLA Vbeta: DTGVSQDPRHKITKRGQNVTFRCDPISEHNRLYWYRQTLGQGPEFLTYFQNEAQLEKSRLLSDRFSAERPKGSFSTLEIQRTEQGDSAMYLCASSLVSGNEQFFGPGTRLTVL
–	recognises	TCR W (TCR, V domains shown) Valpha: AQSVAQPEDQVNVAEGNPLTVKCTYSVSGNPYLFWYVQYPNRGLQFLLKYITGDNLVKGSYGFEAEFNKSQTSFHLKKPSALVSDSALYFCAVRDPTSGTYKYIFGTGTRLKVLA Vbeta: DTGVSQDPRHKITKRGQNVTFRCDPISEHNRLYWYRQTLGQGPEFLTYFQNEAQLEKSRLLSDRFSAERPKGSFSTLEIQRTEQGDSAMYLCASSLVQGNEQFFGPGTRLTVL
1.5 ng/mL	–	TCR Z (TCR, V domains shown) V domain 1: QQVMQIPQYQHVQEGEDFTTYCNSSTTLSNIQWYKQRPGGHPVFLIQLVKSGEVKKQKRLTFQFGEAKKNSSLHITATQTTDVGTYFCAGPKGNTPLVFGKGTRLSVIA V domain 2: DTGVSQDPRHKITKRGQNVTFRCDPISEHNRLYWYRQTLGQGPEFLTYFQNEAQLEKSRLLSDRFSAERPKGSFSTLEIQRTEQGDSAMYLCASSLTVSYEQYFGPGTRLTVTE
–	recognises	TCR Y (TCR, V domains shown) Valpha: SQQGEEDPQALSIQEGENATMNCSYKTSINNLQWYRQNSGRGLVHLILIRSNEREKHSGRLRVTLDTSKKSSSLLITASRAADTASYFCATAYSGGGADGLTFGKGTHLIIQP Vbeta: DTGVSQNPRHKITKRGQNVTFRCDPISEHNRLYWYRQTLGQGPEFLTYFQNEAQLEKSRLLSDRFSAERPKGSFSTLEIQRTEQGDSAMYLCASSLIRAEKLFFGSGTQLSVL
40.2 ng/mL	–	TCR AB (TCR, V domains shown) V domain 1: AQSVAQPEDQVNVAEGNPLTVKCTYSVSGNPYLFWYVQYPNRGLQFLLKYITGDNLVKGSYGFEAEFNKSQTSFHLKKPSALVSDSALYFCAVRVPTGGYQKVTFGIGTKLQVIP V domain 2: DTGVSQNPRHKITKRGQNVTFRCDPISEHNRLYWYRQTLGQGPEFLTYFQNEAQLEKSRLLSDRFSAERPKGSFSTLEIQRTEQGDSAMYLCASKLTDTQYFGPGTRLTVLE
–	recognises	TCR AB (TCR, V domains shown) Valpha: AQSVAQPEDQVNVAEGNPLTVKCTYSVSGNPYLFWYVQYPNRGLQFLLKYITGDNLVKGSYGFEAEFNKSQTSFHLKKPSALVSDSALYFCAVRVPTGGYQKVTFGIGTKLQVIP Vbeta: DTGVSQNPRHKITKRGQNVTFRCDPISEHNRLYWYRQTLGQGPEFLTYFQNEAQLEKSRLLSDRFSAERPKGSFSTLEIQRTEQGDSAMYLCASKLTDTQYFGPGTRLTVL
